{"source": "paper PMC12538437", "about": "“Branched DNA processing by a thermostable CAS-Cas4 from Thermococcus onnurineus: Expanding biochemical landscape of nuclease activity”", "binders": {"B1": {"name": "ssDNA (Y0-1F) (ssDNA)", "DNA": "ATTCTACCAGTGCCTTGCTAGGACATCTTTGCCCACCTGC"}}, "target": "T1, TON_0321 (CAS-Cas4) (Thermococcus onnurineus NA1, UniProt B6YTB9 1-222)", "T1 sequence": "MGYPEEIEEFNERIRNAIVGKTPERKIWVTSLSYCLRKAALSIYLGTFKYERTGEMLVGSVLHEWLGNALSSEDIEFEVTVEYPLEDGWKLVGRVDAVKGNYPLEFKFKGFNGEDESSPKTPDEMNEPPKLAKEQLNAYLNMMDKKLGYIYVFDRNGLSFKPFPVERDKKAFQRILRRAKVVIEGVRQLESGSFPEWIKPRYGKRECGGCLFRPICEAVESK", "assay": "fluorescence anisotropy; 20 mM ZnSO4; 20 mM Tris-HCl pH 8.0, 100 mM NaCl, 0.5 mM DTT, 0.1 mg/ml BSA, 20 mM ZnSO4, 25 °C; 35 nM DNA (25 nM labeled), 0-1600 nM protein", "conditions": "protein: recombinant; tags: N-terminal 6xHis (pET28a); label: 5' 6-FAM; single strand", "data": [{"binder": "B1", "values": [{"measurement": "binding result", "result": "binds"}]}]}
